Entries after “also recorded” stand apart in the source; their conditions may differ.

For experiment [1], the system named is moderate to severe pain from osteoarthritis of the knee. The experiment is described as follows: Clinical study, osteoarthritis of the knee: WOMAC 3.1 index. The class given is in vivo, human. Particulars: day 1 to day 28. The text has this:
Adult males and females (ages between 35 to 65) who were experiencing moderate-to-severe pain from osteoarthritis of the knee, but were in otherwise overall good health were enrolled in the study. During the screening period, patients were required to discontinue arthritis medications such as NSAIDs, cyclooxygenase type-2 (COX-2) inhibitors, and opiates at least 14 days prior to administration of anti-NGF antibody E3. Patients were allowed to use rescue medications of acetaminophen or ibuprofen with some restrictions based on laboratory findings or past medical history. […] Thirty-four patients were admitted to the study and assessed as inpatients for on Study Days -1, 1 and 2. […] The volume for each patient was calculated based on the subject's Day -1 weight and assigned dose level, ranging from 3-6 cc for cohort 1, 10-20 cc for cohort 2, 30-60 cc for cohort 3, and 100 cc for cohort 4 and cohort 5. […] Each domain was scored by determining the means of the VAS scores of the component questions. The total WOMAC 3.1TM was scored by determining the means of the scores from each of the 3 domains. […] Outcome was assessed as change from baseline (pain level during screening period), expressed as pain intensity difference (PID) or summed pain intensity difference (SPID) for different dose levels. […]

For the next experiment, the target named is human NGF (Homo sapiens, UniProt P01138). Put plainly: Mouse E17/18 trigeminal neuron survival assay, NGF. The settings on record: saturating NGF (400 pM); 48 hours. The class given is cell-based. As to the method:
The ability of antibody E3 to specifically block NGF activity was evaluated by measurement of the capacity of the antibody to inhibit survival of mouse E17/18 trigeminal neurons in vitro in the presence of saturating concentrations of NGF, the NGF-related neurotrophin NT3, or the NGF-unrelated neurotrophic factor, macrophage stimulating protein (MSP). The survival of mouse E17/18 trigeminal neurons is a sensitive assay to evaluate the NGF-blocking activity of anti-NGF antagonist antibodies because NGF is required to support survival of these neurons at higher concentrations than the level of NGF required to support survival of E13.5 TG neurons).
The survival assay was conducted as follows: time mated pregnant Swiss Webster female mice were euthanised by CO2 inhalation. The uterine horns were removed and the embryos (at embryonic day 17 or 18) were extracted and decapitated. The trigeminal and nodose ganglia were dissected and cleaned. The ganglia were then trypsinised, mechanically dissociated and plated at a density of 100-300 cells per well in defined, serum-free medium in 4-well plates (Greiner) coated with poly-L-ornithine and laminin.
E17/18 trigeminal neurons were grown either without added neurotrophic factors (negative control) or in the presence of saturating concentrations of human NGF (400 pM and 15 pM) (positive control); NT3 (400 pM); or MSP (600 pM). […]

human NGF, sequence (P01138 122-241): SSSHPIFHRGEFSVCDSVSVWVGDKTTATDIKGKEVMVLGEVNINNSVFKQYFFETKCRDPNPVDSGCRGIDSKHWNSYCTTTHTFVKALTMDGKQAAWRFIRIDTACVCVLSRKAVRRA

B1: E3: humanized, affinity matured anti-NGF antagonist antibody; variable regions SEQ ID NO:1 and 2; human IgG2a (A330P331 to S330S331), kappa (antibody, V domains shown)
VH: QVQLQESGPGLVKPSETLSLTCTVSGFSLIGYDLNWIRQPPGKGLEWIGIIWGDGTTDYNSAVKSRVTISKDTSKNQFSLKLSSVTAADTAVYYCARGGYWYATSYYFDYWGQGTLVTVS
VL: DIQMTQSPSSLSASVGDRVTITCRASQSISNNLNWYQQKPGKAPKLLIYYTSRFHSGVPSRFSGSGSGTDFTFTISSLQPEDIATYYCQQEHTLPYTFGQGTKLEIKRT
modifications: human IgG2a constant (A330S/P331S) and kappa constant missing
Consider B1, for which, in experiment [1] (100 μg/kg), the “WOMAC pain, physical function and stiffness score” value is “reduced significantly”. In experiment [1] (single i.v. dose), the WOMAC score entry is reported as “reduced WOMAC score”. Besides, in the experiment with human NGF, the “survival of E17/18 trigeminal neurons promoted by NGF” value was “completely blocked; also recorded: totally blocked”.

Source of the values: patent US20080182978A1, “ANTI-NGF ANTIBODIES AND METHODS USING SAME” (RINAT NEUROSCIENCE CORP, priority 2002, published 2008).
